Columns and labels:
Format in all cases: cell-based
[1] = tested on: endogenous genome targets (ACTB, HSP90AA1); test: Arrayed SSAP library screening, mKate knock-in assay (editing efficiency); details: average of HSP90 and ACTB, 3 days after transfection; for Editing Efficiency (Normalized, Average, two targets): fold over negative control (Flag_HA); for Editing Efficiency (Absolute, Average, two targets): percent of mKate knock-in
Outline: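 Mammalian cells in duplicate were transfected with SSAP-encoding plasmids, with about 50% transfection efficiency. mKate knock-in positive cells and viability, by flow-cytometric live counts, were quantified three days later. RecT SSAP served as positive control and Flag-HA plasmid as negative control.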

mammalian cells = test: Arrayed SSAP library screening, cell viability by live cell counts via flow cytometry
Outline: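 Each SSAP plasmid transfected in duplicate (~50% efficiency), with RecT SSAP as positive and Flag-HA as negative control. After three days, mKate-positive cells and viability by flow-cytometric live cell counts were quantified to gauge SSAP fitness effects.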

gene editing with Cas9 = test: Screen of 322 new SSAP proteins, gene editing activity with Cas9 (Table 5); parameters: Cas9 with SSAP activity: scale not given here
Outline: (§1)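 The 322 SSAP proteins were found in sequence data and then synthesized. Each was screened for gene editing activity when paired with Cas9 and with dCas9.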

gene editing with dCas9 = test: Screen of 322 new SSAP proteins, gene editing activity with dCas9 (Table 5); parameters: dCas9 with SSAP activity: scale not given here
Outline: as §1

[2] = tested on: gene editing with Cas9 and dCas9; test: Screen of 322 new SSAP proteins, activity across all experiments (Cas9 and dCas9, Table 5); parameters: scale not given here
Outline: as §1

| Molecule | Editing Efficiency (Normalized, Average, two targets) [1] | Editing Efficiency (Absolute, Average, two targets) [1] | Cell Viability (Average, two targets) (mammalian cells) | Cas9 with SSAP activity (gene editing with Cas9) | Cas9 with SSAP activity (normalized) (gene editing with Cas9) | dCas9 with SSAP activity (gene editing with dCas9) | dCas9 with SSAP activity (normalized) (gene editing with dCas9) | Activity across all experiments [2] |
| --- | --- | --- | --- | --- | --- | --- | --- | --- |
| SSAP_4: SEQ ID NO: 166 (protein, Lambda) MSTALATLAGKLAERVGMDSVDPQELITTLRQTAFKGDASDAQFIALLIVANQYGLNPWTKEIYAFPDKQNGIVPVVGVDGWSRIINENQQFDGMDFEQDNESCTCRIYRKDRNHPICVTEWMDECRREPFKTREGREITGPWQSHPKRMLRHKAMIQCARLAFGFAGIYDKDEAERIVENTAYTAERQPERDITPVNDETMQEINTLLIALDKTWDDDLLPLCSQIFRRDIRASSELTQAEAVKALGFLKQKAAEQKVAA | 5.57 | 13.8 | 1.192 | −2.882 | −0.474 | −6.997 | −1.447 | −4.940 |
| SSAP_36: SEQ ID NO: 205 (protein) SSIAAAAESAEVTPASIINKYRDDIATVLPPKLRERIDRWIRLAIGAVNSNPELISRVRADQGASMMQALMKCAALGHEPGSGLFHLVPKGSRIEGWEDYKGILQRIDRSGVYARTVIGVVYANDEYSYDQNVDERPRHVRATGDRGEPISSYAYAVYPSGAITTVAEATPEQIASSKSKARGADNAASPWRAPGAPMHRKVAVRLLEKHVATSAEDRREPISRSAANDVVIDATADYYQEP | 6.383 | 15.8 | 0.9418 | −4.118 | −0.619 | −8.909 | −1.787 | −6.514 |
| SSAP_194: SEQ ID NO: 363; Streptomyces sp. CS014 (protein, listed as Streptomyces sp.) TENTVTAAVAVRDTGPAAQIEAYRDEYAALVPSHINADQWVRLAVGAIRGNEDLTNAARTDIGVFLRELKTAARLGLEPGTEQFYLTPRKSKAHRGQKIIKGIVGYQGIIELIYRAGAVSSVIVESVRANDTFRYVIGRDERPVHEIDWFGGDRGDLVGVYAYATMKDGATSKVVVLNHAQVMQIRAKSDSKHSEYSPWNTNPESMWLKSAVRQLMKWVPTSAEYMREQLRAQAEVAAEQPPAADLPPMPSVELNDEDEAVDAELVDEEA | 4.924 | 12.175 | 1.139 | 2.727 | 3.516 | −8.790 |  | −3.031 |
| SSAP_229: SEQ ID NO: 398; Amycolatopsis sp. CB00013 (protein, listed as Amycolatopsis sp.) TTQTVTSAVAQQDSSPAALVRKYRTDFATVLPSHIKPETWLRIATGALRRSSQLAHAAEKNPTSLLVALLDAARKGLEPGTEQYYLVPRKTKRGPEVLGITGYQGEVELMYRAGAVSSVKVEGVREHDTFAYNPGEHDRPVHEINWRANRGDLVLAYAYAYAKMRDGATSNVSVLSADDIAVILSKAEGADSPFSPWQWNPKAMWLKSAAHQLAKWVPTSAERVWQPDGPPLEAPPATPVTLPTVEDVVDAEVVEDWPTTPADTADSEQ | 3.971 | 9.8525 | 0.8776 | −2.969 | −0.509 | −9.275 |  | −6.122 |
| SSAP_12: SEQ ID NO: 181 (protein) STALATLAGKLAERVGMDSVDPQELITTLRQTAFKGDASDAQFIALLIVANQYGLNPWTKEIYAFPDKQNGIVPVVGVDGWSRIINENQQFDGMDFEQDNESCTCRIYRKDRNHPICVTEWMDECRREPFKTREGREITGPWQSHPKRMLRHKAMIQCARLAFGFAGIYDKDEAERIVENTAYTAERQPERDITPVNDETMQEINTLLIALDKTWDDDLLPLCSQIFRRDIRASSELTQAEAVKALGFLKQKASEQKVAA | 4.263 | 10.5525 | 1.291 | −7.814 | −1.324 | −7.567 | −1.196 | −7.690 |
| SSAP_309: SEQ ID NO: 478; Paenibacillus sp. FSL R7-0333 (protein, listed as Paenibacillus sp.) TVAIELQVQETLDRILDSKHDALPSDFNKKRFSENCKAYVADEKDLHKYSPEEIAANLFKGAVLGLDFLAKECHLISGGVELKFQTDYKGEMKLTKKYSVRPLLDVYAKNVREGDEFREEVIEGRPVIHFAPLPFNASSIIGSFAVALFQDGGMVYESIPAGEIEEIRKNYGKSLGDAWDKSQGEMYKRTVLRRLCKTIETDFDAEQRLIYDAGGAFEFTKQPARSRQQSPFNPPEESEVTQDDRVAETDQG | 3.992 | 9.885 | 0.9224 | −3.975 | −1.807 | −9.420 | −2.412 | −6.697 |
| SSAP_221: SEQ ID NO: 390; Streptomyces sp. 351MFTsu5.1 (protein, listed as Streptomyces sp.) SQISNAIEKRDQGPGAVIEQYKQELALVAASHVKVDTFARLAVGALRQNPKLAAAAQSNPGSLMSALMTAARLGLEPGTEQFYLRPIKRKGVAEVQGIVGYQGIVELIYNAGAASSVVVEVVRANDQFNYVPGLHERPVHNVDWFGDRGDLVGVYAYAVMAGGATSKVVVLSRTHINRAKAKSDGADSDYSPWRTDEEAMWLKTAARRLGKWVPTSAERLTMPAERTDTVLPVGSAAPALDAADPDEDEGPVDGELEPAGGWPETAQPPQ | 4.587 | 11.35 | 0.9772 | −4.494 | −0.728 | −8.056 |  | −6.275 |
| SSAP_158: SEQ ID NO: 327; Nakamurella lactea (protein, Nakamurella lacteal, Nakamurella lactea) ASNLAARAAEQVEQQTAPNRPPTIKEQIGRMESQFALAMPRGSEAAQLVRDAITAINTNPQLAECTPASVLGALMTCAQLGLRPGVLGHAWVLPFRSKGVMQAQLVIGYQGLVELAHRTGQVASLIAREVHERDHFDVDYGLADSLIHKPLLNGDRGPVTGYYAIVKFKGGGHSFIYASKADVEAHRDKFSKMKSFGPWVDNFDSMALKTVVRMLAKWMPKSTEFANAISADEGVRVDYSPTADVAQATEYVQPQLEEAPVEGVVVSEGGES | 5.44 | 13.45 | 0.9945 | −1.229 | −0.520 | −6.910 | −1.386 | −4.070 |
| SSAP_197: SEQ ID NO: 366; Arsenophonus sp. ENCA (protein, listed as Arsenophonus sp.) NTELETMNNVYDNLQSVIMQQGIAALLPAQVTPEQFTRTAATALIENVDLQNADKQSLVLALTRCAKDGLMPDGREAALVVRSTKVNKQFVKKAVYMPMVDGVIKRARQSGQVANIIAKVVYSQDEFEYVIDENGEHLTHRPAFVDGDDIVKVYAFAKLNSGELVVEVMSRAGVEKIRDTVQSAKYDSSPWVKWFDRMALKTVIHRLARRLPCASELFSLFEVYEDANSTEKTLRMAPASFKRLSIN | 5.661 | 14.025 | 1.021 | −2.785 | −1.134 | −6.622 | −1.370 | −4.703 |
| SSAP_15: SEQ ID NO: 184 (protein) AKNELAKGSYLTDLQKLDGNTLRDFVDPKHQASPQELQALLAIVKGRNLNPFTKEVYFIKYGSAPAQIVVSKEAIMKRAEENPDFDGFEAGIVVETKDGAIERLTGTIVPKSATLRGGWCKVYRKDRSHAIEADADFAYYTTSKNLWQKMPALMIRKVAIVSAFREAFSESVGGLYTADEMQRETQAEVRARKMKEAYEEKLYLLTQMEAKSYKKTKSKNENEAKKTKEAEAIETVEEPTQDGNLEW | 5.477 | 13.55 | 1.226 | −1.876 | −0.850 | −0.701 | −2.250 | −1.288 |
